Experimental findings from the DeepSol protein solubility set are described below.

The data set is described as follows: soluble on expression in E. coli; label from the status in PepcDB or PDB records.
As to “MQIDKLRGRELDQLFKAILSLRDLEECYRFFDDLCTVNEIQALAQRLEVARMLREGYTYHKIETETGASTATISRVKRCLNYGNDAYAMALDRIKEEQQQEEKEANEAVTD”, the “soluble on expression in E. coli” value is “not soluble”. The same measure for “MQIMGLLEDKALVEAALFVAGRPLSVKELSKALGIKSLDYLEKLIELIASEYAERKSAIEVTKVAGDKWVMQVKQEYSQRVIHLMPKPELTAGELKTLALIAFLQPVEQSKIVKLRGSQAYEHIKRLLEMGLIYAEPYERTKLLGTTEKFAELYGFPENDPNLIREKFREVIHAEYEDLVKKLEETEANRNNPTT”: “soluble”; for “MQITLARIDDRLIHGQVTTVWSKVANAQRIIICNDDVFNDEVRRTLLRQAAPPGMKVNVVSLEKAVAVYHNPQYQDETVFYLFTNPHDVLTMVRQGVQIATLNIGGMAWRPGKKQLTKAVSLDPQDIQAFRELDKLGVKLDLRVVASDPSVNILDKINETAFCE”: “soluble”. The same measure for “MQIVKKEKFILKEYTFENGRTIPVQMGYETYGTLNRERSNVILICHYFSATSHAAGKYTAHDEESGWWDGLIGPGKAIDTNQYFVICTDNLCNVQVKNPHVITTGPKSINPKTGDEYAMDFPVFTFLDVARMQCELIKDMGIARLHAVMGPSAGGMIAQQWAVHYPHMVERMIGVITNPQNPIITSVNVAQNAIEAIRLDPSWKGGKYGEEQPMKGLQLANRMMFMNAFDEHFYETTYPRNSIEVEPYEKVSSLTSFEKEINKLTYRSIELVDANSWMYTAKAVLLHDIAHGFSSLEEALSNVEANVLMIPCKQDLLQPSRYNYKMVDLLQKQGKYAEVYEIESINGHMAGVFDIHLFEKKVYEFLNRKVSSFV”: “not soluble”; for “MQIVQIEQAPKDYISDIKIIPSKSLLLITSWDGSLTVYKFDIQAKNVDLLQSLRYKHPLLCCNFIDNTDLQIYVGTVQGEILKVDLIGSPSFQALTNNEANLGICRICKYGDDKLIAASWDGLIEVIDPRNYGDGVIAVKNLNSNNTKVKNKIFTMDTNSSRLIVGMNNSQVQWFRLPLCEDDNGTIEESGLKYQIRDVALLPKEQEGYACSSIDGRVAVEFFDDQGDDYNSSKRFAFRCHRLNLKDTNLAYPVNSIEFSPRHKFLYTAGSDGIISCWNLQTRKKIKNFAKFNEDSVVKIACSDNILCLATSDDTFKTNAAIDQTIELNASSIYIIFDYENLEHHHHHH”: “soluble”. The same measure for “MQKINDAGELAKHSVVVTTFDTIKTLMNFQTLQKISFERIIIYDAYPIDNTDTQRYKALRQLDATYRWVLTGNLLQQNLANFLKLGEYGDDQLWDTQICPILEGKQCDEKTELSKKIENLLKSVELKFPLENYREMEVGADDSQ”: “not soluble”; for MQKPVMNPKQRIFIRGLGLPSSYVEAQKKRDEENAKN: “not soluble”.

On to “MQLNMMLENRDYTLVIDHSASMAKPDGNSENSKWQAIQESTFALARKCEEFDSDGITVYLFSKTFQRYDYVNSAKVKQLFAENSPSETTNLVGVLQDAINSYFQRKSLGKTKPAGEVILVITDGAPVDSQAVCEVIIKATHLVESANELRISIIQVGSDSHATKFLKALDDHLQSVGAKFDICDTITLDELEITNLSDVLMKAITDLEHHHHHH”, for which the “soluble on expression in E. coli” value is listed as “soluble”. The same measure for “MQLRYAFRVYPDAGQRLALARAFGCARVVFNDVVRAREDARKAGRPFQTAAGLSRKLITEAKRTAERSWLGEVSAVVLQQSLRDAETAYRNFFASLKGTRKGPRVGPPRYKSRKDARQSIRFTANARWSITDSGRLNLPKIGAVKVKWSRTLPTIPTSVTVIKDAAGRYFASFVVDTDPAADRVRMPDADRTVGIDLGLTHFAVLSDGTKIGSPRFLRRAEKKLKKAQQELSRKQMGSKNRDRARLKVARAHAKVADARREFHHQLSTRLISENQGIAVEDLSVAGLARTRLAKSVHDAGWSSFVGMLKYKAERYGRTLVVIGRFEPTSQTCSTCGVKDGPKPLQVREWTCTACGTVHDRDHNAAINVKQAAGLAASACGAPVRPGAIPAQREETGSHGLPTEPRAALEHHHHHH”: “not soluble”; for “MQLSWKDIPTVAPANDLLDIVLNRTQRKTPTVIRPGFKITRIRAFYMRKVKYTGEGFVEKFEDILKGFPNINDVHPFHRDLMDTLYEKNHYKISLAAISRAKSLVEQVARDYVRLLKFGQSLFQCKQLKRAALGRMATIVKKLRDPLAYLEQVRQHIGRLPSIDPNTRTLLICGYPNVGKSSFLRCITKSDVDVQPYAFTTKSLYVGHFDYKYLRFQAIDTPGILDRPTEEMNNIEMQSIYAIAHLRSCVLYFMDLSEQCGFTIEAQVKLFHSIKPLFANKSVMVVINKTDIIRPEDLDEERAQLLESVKEVPGVEIMTSSCQLEENVMEVRNKACEKLLASRIENKLKSQSRINNVLNKIHVAQPQARDDVKRTPFIPESVKNLKKYDPEDPNRRKLARDIEAENGGAGVFNVNLKDKYLLEDDEWKNDIMPEILDGKNVYDFLDPEIAAKLQALEEEEEKLENEGFYNSDDEEEIYDGFEASEVDDIKEKAAWIRNRQKTMIAEARNRKSLKNKAIMPRSKLTKSFGKMEEHMSTLGHDMSALQDKQNRAARKNRYVERGSDVVFGDQDALTASTENGVKLRQTDRLLDGVADGSMRSKADRMAKMERRERNRHAKQGESDRHNAVSLSKHLFSGKRGVGKTDFR”: “not soluble”; for “MQLVVARIGRAHGIKGEVTVEVRTDEPELRLGPGAVLATDPASVGPLTIETGRVHSGRLLLRFEGVRDRNGAEALRNTLLIAEVDPDEVPEDPDEYYDHQLMDLDVVTKDGTEVGRITEISHLPSQDLFVVERSDGSEVYIPFVEEIVVEIDLEEQRAVIDPPPGLIDDRAEVDSSDTEAATEADALEHHHHHH”: “soluble”. Then “MQMYLADCIFPDIEGQLAAYKSFCELWDSGEMAKLDNFDGFQMLFRVHAPGAGRVTILFKAESDAQIFEAFAPWRAQFGIEMDFTPVIGCQDVVDYHKKLFAKMS”, with “not soluble”; and “MQNAGSLVVLGSINADHILNLQSFPTPGETVTGNHYQVAFGGKGANQAVAAGRSGANIAFIACTGDDSIGESVRQQLATDNIDITPVSVIKGESTGVALIFVNGEGENVIGIHAGANAALSPALVEAQRERIANASALLMQLESPLESVMAAAKIAHQNKTIVALNPAPARELPDELLALVDIITPNETEAEKLTGIRVENDEDAAKAAQVLHEKGIRTVLITLGSRGVWASVNGEGQRVPGFRVQAVDTIAAGDTFNGALITALLEEKPLPEAIRFAHAAAAIAVTRKGAQPSVPWREEIDAFLDRQR”, with “soluble”; and “MQNISTHKYMEKLDLTWSDDSIRFINTATPRARQTFFYVQEAGDFCTSSPYFTERENLNSFLIIYTLRGKGLLKYHGSQYSLHPGTTAYINCMEHHHYECLQKQNWEFLWLHFNGPSALGYYEEFMRSNFHILDSLDPFFMESTMRRILSITQRKDIHSEILSSCLIINILTRILIENDTENLSLGFMPTY”, with “not soluble”. Then “MQNKIVKIGNIDVANDKPFVLFGGMNVLESRDMAMQVCEAYVKVTEKLGVPYVFKASFDKANRSSIHSYRGPGMEEGLKIFQELKDTFGVKIITDVHEIYQCQPVADVVDIIQLPAFLARQTDLVEAMAKTGAVINVKKPQFLSPSQMGNIVEKIEECGNDKIILCDRGTNFGYDNLIVDMLGFSVMKKASKGSPVIFDVTHSLQCRDPFGAASSGRRAQVTELARSGLAVGIAGLFLEAHPNPNQAKCDGPSALPLSALEGFVSQMKAIDDLVKSFPELDTSIGSHHHHHH”, with “soluble”; and “MQNNSYGYAVSVRVGGKEHRHWERYDIDSDFLIPADSFDFVIGRLGPEAAIPDLSGESCEVVIDGQIVMTGIIGSQRHGKSKGSRELSLSGRDLAGFLVDCSAPQLNVKGMTVLDAAKKLAAPWPQIKAVVLKAENNPALGKIDIEPGETVWQALTHIANSVGLHPWLEPDGTLVVGGADYSSPPVATLCWSRTDSRCNIERMDIEWDTDNRFSEVTFLAQSHGRSGDSAKHDLKWVYKDPTMTLHRPKTVVVSDADNLAALQKQAKKQLADWRLEGFTLTITVGGHKTRDGVLWQPGLRVHVIDDEHGIDAVFFLMGRRFMLSRMDGTQTELRLKEDGIWTPDAYPKKAEAARKRKGKRKGVSHKGKKGGKKQAETAVFE”, with “soluble”. Turning to “MQNRQVANATKVAVAGASGYAGGEILRLLLGHPAYADGRLRIGALTAATSAGSTLGEHHPHLTPLAHRVVEPTEAAVLGGHDAVFLALPHGHSAVLAQQLSPETLIIDCGADFRLTDAAVWERFYGSSHAGSWPYGLPELPGARDQLRGTRRIAVPGCYPTAALLALFPALAADLIEPAVTVVAVSGTSGAGRAATTDLLGAEVIGSARAYNIAGVHRHTPEIAQGLRAVTDRDVSVSFTPVLIPASRGILATCTARTRSPLSQLRAAYEKAYHAEPFIYLMPEGQLPRTGAVIGSNAAHIAVAVDEDAQTFVAIAAIDNLVKGTAGAAVQSMNLALGWPETDGLSVVGVAP”, the “soluble on expression in E. coli” value is on record as “soluble”. The same measure for “MQNSTTEFLKPRQIDVNTFSATRAKVSMQPFERGFGHTLGNALRRILLSSMNGFAPTEVAIAGVLHEYSTVDGIQEDVVDILLNIKGIVFKLHGRSQVQLVLKKSGSGVVSAGDIELPHDVEILNPGHVICHLADNGQIEMEIKVEQGRGYQSVSGRQVVRDENRQIGAIQLDASFSPISRVSFEVEPARVEQRTDLDKLVLDIETDGSIDPEEAVRSAARILIDQMSIFADLQGTPVEEVEEKAPPIDPVLLRPVDDLELTVRSANCLKAEDIYYIGDLIQRTETELLKTPNLGRKSLNEIKEVLASKGLTLGSKLEAWPPVGLEKP”: “soluble”; for “MQPAVYILASQRNGTLYIGVTSDLVQRIYQHREHLIEGFTSRYNVTMLVWYELHPTMESAITREKQLKKWNRAWKLQLIEENNVSWQDLWFDII”: “not soluble”; for “MQPEFWNDKRPAGVPDSLDFAAYRSVVEVFERSCKKFADRPAFSNLGVTLSYAELDRLSAAFAAYLQKQTDLQPGDRIAVQMPNVLQYPIAVFGALRAGLVVVNTNPLYTAREMRHQFKDAGVRALVYLNVFGKLVEEVLPDTRIEYLIEARMGDLLPALKGWLVNSVVKSVKKMVPDYRLPQALPFRQALKQGQGHALQPVRVGLEDVAVLQYTGGTTGVSKGAMLTHGNLVANMLQVHAQLSQLGKDGLPLMKEAQEVMIAPLPLYHIYAFTANCMCMMVSGNHNVLITNPRDIPGFVKELKKWRFSALLGLNTLFVALMEHPGFKDVDFSNLKLTNSGGTALVSATAERWKGVTGCTVVEGYGLTECSPVVTTNPYGEQARLGTVGIPVVGTALKVIDEQGNELPVGERGELCVKGPQVMKGYWQRPEATEEILDAEGWLKTGDIAVIDEDGFVRIVDRKKDLILVSGFNVYPNEIEDVVMAHPKVASCAAVGIPDEKSGEAVKLFVVARDPSLSVEELKAYCKENLTGYKIPRQIVLKDALPMTPVGKILR”: “not soluble”. Then “MQPERYVWAKYFWEQARDANGVARRHLGDTTRNNGAPTVGSPFVALCGIDVTPHPEDTDTARGTCFAPACMVCTTLFARATGWSAGAIGNLIQTFQWTNNDVRQLGLALGMTASQTRRQIEQWTQEADKVNKARHTAKQQKAAGR”, with “not soluble”; and “MQPKVVYGNAAVEGVNRWGWFMGHFITPEDDPRSTEMLEVKWAVHKAGDSRTEWAVNNQAATLSILIDGEFRLQFEDREILLSREGDYVLWCAGVPHWWVAESDCTILTVRWPSKPGDSVALPEESKS”, with “soluble”.
